B1: H2-Kb / Ed28 (parent complex)
chain 1: AQSVTQPDARVTVSEGASLQLRCKYSYFGTPYLFWYVQYPRQGLQLLLKYYPGDPVVQGVNGFEAEFSKSNSSFHLRKASVHWSDWAVYFCAVSPGSGGKLTLGAGTRLQVNL
chain 2: DSGVVQSPRHIIKEKGGRSVLTCIPISGHSNVVWYQQTLGKELKFLIQHYEKVERDKGFLPSRFSVQQFDDYHSEMNMSALELEDSAMYFCASSPRASDYTFGSGTRLLVI
chain 3: not shown
chain 4: IQKTPQIQVYSRHPPENGKPNILNCYVTQFHPPHIEIQMLKNGKKIPKVEMSDMSFSKDWSFYILAHTEFTPTETDTYACRVKHDSMAEPKTVYWDRDM
chain 5: SIINFEKL

Variants of: B1
Experiment: % of reporter cells activated (NFAT-GFP), raw; also: test concentration or dose not given here

ratio to parent	Variant
0.742	chain 5 F5N
1.17	chain 5 F5T
0.774	chain 5 F5R
0.772	chain 5 F5V
0.741	chain 5 F5M
0.293	chain 5 S1N
0.321	chain 5 S1R
0.433	chain 5 S1I
0.798	chain 5 S1E
0.965	chain 5 S1F
0.81	chain 5 S1Q
0.445	chain 5 S1K
0.59	chain 5 S1C
0.723	chain 5 S1W
0.693	chain 5 S1P
0.857	chain 5 I2M
0.702	chain 5 I2W
1.2	chain 5 I2P
0.659	chain 5 I2H
1.14	chain 5 I2S
0.981	chain 5 I2E
1.01	chain 5 I2F
1.06	chain 5 I2G
1.3	chain 5 I2V
0.837	chain 5 I2K

ratio to parent	Variant
0.58	chain 5 I2Y
0.574	chain 5 I2Q
0.584	chain 5 L8K
0.475	chain 5 L8D
0.563	chain 5 L8S
0.915	chain 5 L8R
1.02	chain 5 L8F
0.947	chain 5 L8G
0.832	chain 5 L8T
0.709	chain 5 L8A
0.898	chain 5 I3P
0.369	chain 5 I3Y
0.727	chain 5 I3D
1.16	chain 5 I3N
0.449	chain 5 I3Q
0.6	chain 5 I3F
0.592	chain 5 I3W
0.959	chain 5 I3M
1.31	chain 5 I3T
0.836	chain 5 I3G
0.894	chain 5 I3C
0.533	chain 5 E6D
0.22	chain 5 E6N
0.0103	chain 5 E6V
0.651	chain 5 E6G

ratio to parent	Variant
0.0718	chain 5 E6R
0.013	chain 5 E6F
0.0885	chain 5 E6Y
0.702	chain 5 E6K
0.227	chain 5 N4R
0.00709	chain 5 N4M
0.0195	chain 5 N4Y
0.00495	chain 5 N4Q
0.167	chain 5 N4I
0.0349	chain 5 N4T
0.329	chain 5 N4L
0.0455	chain 5 N4H
0.0123	chain 5 N4F
0.145	chain 5 K7P
0.496	chain 5 K7R
0.0786	chain 5 K7F
0.115	chain 5 K7T
0.159	chain 5 K7V
0.141	chain 5 K7Q
0.185	chain 5 K7G
0.104	chain 5 K7M
0.242	chain 5 K7N
0.00937	chain 5 K7D
0.244	chain 5 K7L
0.162	chain 5 K7A

From publication PMC11480844 (2024)
